For orientation: Kd means the free concentration of one partner at which half of the binding sites on the other are occupied at equilibrium, for simple one-to-one binding. Read a low Kd as a tighter complex. The term koff denotes a measure of how fast the partners let go of each other. A higher koff goes with a short-lived complex. As a reminder, the kon is the second-order rate constant of association. Low readings indicate slower complex formation, high ones faster complex formation.

The target of this assay is T1, hIL-4Rα (Sino Biological) (human, UniProt P24394 26-232).
T1 construct: Bought protein immobilised on the CM5 chip for SPR
The assay can be described thus: SPR (Biacore 2000), hIL-4Rα (Sino Biological) immobilised to about 500 RU on CM5, IgG as analyte. The protocol: Specifically, hIL-4Rα (Sino Biological) was diluted to a concentration of […] in a 10 mM NaAc buffer (pH 4.0) and immobilized to about 500 response units (RU) on a CM5 sensor chip (GE Healthcare). […] After binding and dissociation analysis, regeneration of the CM5 chip was carried out by flushing the CM5 chip with a buffer solution (10 mM Glycine, pH 2.0) at a flow rate of 30 μl/min for 90 seconds. The sensorgram, obtained by binding for 90 seconds and dissociation for 900 seconds, was normalized and the value of a blank cell was subtracted therefrom to calculate the affinity.
In this manner, affinity may vary depending on the level of antigen immobilization.
Background: Surface plasmon resonance follows binding to a sensor surface in real time, without labels.

B1: 4R25 (antibody, V domains shown)
VH: EVQLLESGGGLVQPGGSLRLSCAASGFTFSNYAMSWVRQAPGKGLEWVSWISPNSGNIYYADSVKGRFTISRDNSKNTLYLQMNSLRAEDTAVYYCARRPLSAAWSHSSYYNAMDVWGQGTLVTVSS
VL: QSVLTQPPSAPGTPGQRVTISCTGSSSNIGSNSVNWYQQLPGTAPKLLIYDDSHRPSGVPDRFSGSKSGTSASLAISGLRSEDEADYYCDAWDSSLSAYVFGGGTKLTVL
Molecule B1 displayed a Kd of 1.21 nM, a koff of 0.000177 s⁻¹ and a kon of 147000 M⁻¹ s⁻¹.
